In the RNAGym collection of RNA variant scans (doi:10.7554/elife.80360):

B1: CPEB3 Ribozyme (parent)
chain: GGGGGCCACAGCAGAAGCGUUCACGUCGCGGCCCCUGUCAGAUUCUGGUGAAUCUGCGAAUUCUGCUGU

Variants of: B1
Test: self-cleavage, relative activity (ratio to wild type); higher = more cleavage; co-transcriptional

Row | Variant | self-cleavage
1 | G31U U43A | 0.443
2 | G31U U43C | 0.393
3 | G31U U43G | 0.454
4 | G31C C33A | 0.338
5 | G31C C33G | 0.443
6 | G31U C45A | 0.662
7 | G31U C45G | 0.559
8 | G31C U55C | 0.225
9 | G31C U55A | 0.188
10 | G31U G58C | 0.611
11 | G31C C66U | 0.264
12 | G31C C66G | 0.155
13 | G31C C66A | 0.252
14 | G31U U64A | 0.446
15 | G31U U64C | 0.427
16 | G31C G58A | 0.21
17 | G31U C34A | 0.232
18 | G31U C34G | 0.237
19 | G31U U44C | 0.618
20 | G31U C39U | 0.357
21 | G31U C39A | 0.319
22 | G31U C39G | 0.437
23 | G31C G56C | 0.139
24 | G31C G56U | 0.164

Row | Variant | self-cleavage
25 | G31C G56A | 0.2
26 | G31C U64C | 0.273
27 | G31C U64A | 0.111
28 | G31U G65U | 0.352
29 | G31U G65C | 0.358
30 | G31U U36A | 0.189
31 | G31U U36G | 0.738
32 | G31U A42C | 0.458
33 | G31U A42G | 0.692
34 | G31C U49G | 0.175
35 | G31C U49A | 0.286
36 | G31C U49C | 0.178
37 | G31U | 0.782
38 | G31C | 0.255
39 | G31U U61A | 0.289
40 | G31U U61G | 0.351
41 | G31C G37U | 0.203
42 | G31C G37C | 0.217
43 | G31C G37A | 0.19
44 | G31U C54G | 0.33
45 | G31U C54U | 0.729
46 | G31U A59U | 0.334
47 | G31C A40G | 0.229
48 | G31C C32A | 0.474

Row | Variant | self-cleavage
49 | G31C C32U | 0.235
50 | G31U G68A | 0.957
51 | G31U G56U | 0.568
52 | G31U G56A | 0.386
53 | G31C C63A | 0.233
54 | G31C C63G | 0.133
55 | G31C C63U | 0.251
56 | G31C U43C | 0.289
57 | G31C U43G | 0.276
58 | G31C C57G | 0.151
59 | G31C U61C | 0.188
60 | G31C U61A | 0.179
61 | G31C U61G | 0.158
62 | G31U C57A | 0.208
63 | G31U C57U | 0.229
64 | G31U U49A | 0.71
65 | G31U U49C | 0.731
66 | G31C G48C | 0.222
67 | G31C G48A | 0.24
68 | G31C G48U | 0.247
69 | G31U U55C | 0.459
70 | G31U U55G | 0.274
71 | G31U U67A | 0.89
72 | G31U U67G | 0.919

Row | Variant | self-cleavage
73 | G31C C35A | 0.241
74 | G31C C35U | 0.189
75 | G31C U67A | 0.277
76 | G31C U67G | 0.355
77 | G31C A52C | 0.266
78 | G31C A52G | 0.197
79 | G31C A52U | 0.184
80 | G31A U67A | 0.951
81 | G31A U67C | 0.984
82 | G31C U53A | 0.208
83 | G31C U46C | 0.164
84 | G31C U46A | 0.263
85 | G31C U46G | 0.205
86 | G31U U46A | 0.785
87 | G31U U46G | 0.638
88 | G31U U46C | 0.725
89 | G31U C66G | 0.415
90 | G31U C66U | 0.732
91 | G31U C66A | 0.489
92 | G31C U44A | 0.257
93 | G31C U44G | 0.242
94 | G31U U38C | 0.505
95 | G31U U38G | 0.124
96 | G31U U38A | 0.537

Row | Variant | self-cleavage
97 | G31A U62C | 0.406
98 | G31A U62G | 0.434
99 | G31A U62A | 0.352
100 | G31C G68C | 0.414
101 | G31C G68U | 0.392
102 | G31C U69G | 0.444
103 | G31U A51G | 0.636
104 | G31C C39U | 0.197
105 | G31C C39G | 0.235
106 | G31C C39A | 0.186
107 | G31U G47U | 0.795
108 | G31U G47C | 0.684
109 | G31U G47A | 0.787
110 | G31U C32U | 0.32
111 | G31U C32G | 0.177
112 | G31U A60G | 0.277
113 | G31U A60U | 0.229
114 | G31C A59U | 0.24
115 | G31C A59C | 0.178
116 | G31U G48C | 0.812
117 | G31U G48A | 0.756
118 | G31U G48U | 0.797
119 | G31C G47A | 0.249
120 | G31C G47C | 0.271

Row | Variant | self-cleavage
121 | G31C G47U | 0.239
122 | G31C G50C | 0.245
123 | G31C G50U | 0.238
124 | G31C U38G | 0.191
125 | G31C U38C | 0.191
126 | G31C G41A | 0.201
127 | G31C G41C | 0.173
128 | G31C A42U | 0.18
129 | G31C A42G | 0.277
130 | G31C C54G | 0.183
131 | G31C C54A | 0.189
132 | G31U U62G | 0.274
133 | G31U U62C | 0.226
134 | G31U C63U | 0.602
135 | G31C C45A | 0.25
136 | G31C C45G | 0.245
137 | G31C C45U | 0.263
138 | G31C A60U | 0.144
139 | G31C A60G | 0.226
140 | G31C A60C | 0.21
141 | G31A U64G | 0.728
142 | G31U G37U | 0.163
143 | G31U G37C | 0.189
144 | G31U C35G | 0.252

Row | Variant | self-cleavage
145 | G31U G41U | 0.398
146 | G31U U69C | 1.02
147 | G31U U69A | 0.876
148 | G31U A40C | 0.254
149 | G31U A40G | 0.457
150 | G31C C34G | 0.382
151 | G31C C34U | 0.281
152 | G31C U62G | 0.228
153 | G31A U69G | 1.02
154 | G31U A52U | 0.655
155 | G31U A52G | 0.775
156 | G31U G50C | 0.742
157 | G31U G50U | 0.754
158 | G31U C33G | 0.2
159 | G31U C33U | 0.4
160 | G31C G65A | 0.147
161 | G31C G65U | 0.136
162 | C32A | 0.866
163 | G31U U53G | 0.411
164 | G31U U53A | 0.545
165 | G31C U36A | 0.155
166 | G31C U36G | 0.475
167 | G31C U36C | 0.203
